B1: mCD28 hIgG1 (Fc fusion, mouse, UniProt P31041 20-150, looked up)
chain: NKILVKQSPLLVVDSNEVSLSCRYSYNLLAKEFRASLYKGVNSDVEVCVGNGNFTYQPQFRSNAEFNCDGDFDNETVTFRLWNLHVNHTDIYFCKIEFMYPPPYLDNERSNGTIIHIKEKHLCHTQSSPKL
notes: mouse CD28; also called soluble mCD28 hIgG1
B2: mCD28 mIgG2a (Fc fusion, mouse, UniProt P31041 20-150, looked up)
chain: B1 chain
notes: mouse CD28
B3: mB7-1 mIgG2a (Fc fusion, mouse, UniProt Q00609 38-246, looked up)
chain: VDEQLSKSVKDKVLLPCRYNSPHEDESEDRIYWQKHDKVVLSVIAGKLKVWPEYKNRTLYDNTTYSLIILGLVLSDRGTYSCVVQKKERGTYEVKHLALVKLSIKADFSTPNITESGNPSADTKRITCFASGGFPKPRFSWLENGRELPGINTTISQDPESELYTISSQLDFNTTRNHTIKCLIKYGDAHVSEDFTWEKPPEDPPDSKN
notes: mouse B7-1 (CD80); also called mB7-1 Ig-fusion; B7-1 Fc; source: small-scale purified recombinant protein

Assays:
[1] = target: B3; assay: bead-based flow cytometry competition; protein A beads saturated with mB7-1 mIgG2a; 20 nM mPD-L1 hIgG1 or mCD28 hIgG1 with increasing mIgG2a-fused competitor; anti-human Alexa 488; settings: both partners purified
[2] = target: T1, mPD-L1 E163R mCherry (mouse, UniProt Q9EP73 19-290, E163R); assay: flow cytometry on cells; HEK 293 cells expressing PD-L1 mCherry (WT or mutant) queried with protein A microbeads saturated with a 4:1 mixture of PD-1 or B7-1 Fc-fusion and FITC-Fc; no wash; normalised to wild type; settings: one partner purified
T1 construct: mouse PD-L1; source: HEK 293, transfected, on cells; not shown: mCherry, C-terminal, kept

[3] = target: T2, mPD-L1 M188A mCherry (mouse, UniProt Q9EP73 19-290, M188A); assay: as above; settings: one partner purified
T2 construct: mouse PD-L1; source: HEK 293, transfected, on cells; not shown: mCherry, C-terminal, kept

[4] = target: T3, mPD-L1 S142A mCherry (mouse, UniProt Q9EP73 19-290, S142A); assay: as above; settings: one partner purified
T3 construct: mouse PD-L1; source: HEK 293, transfected, on cells; not shown: mCherry, C-terminal, kept

[5] = target: T4, mPD-L1 E163A mCherry (mouse, UniProt Q9EP73 19-290, E163A); assay: as above; settings: one partner purified
T4 construct: mouse PD-L1; source: HEK 293, transfected, on cells; not shown: mCherry, C-terminal, kept

[6] = target: T5, mPD-L1 Q214A mCherry (mouse, UniProt Q9EP73 19-290, Q214A); assay: as above; settings: one partner purified
T5 construct: mouse PD-L1; source: HEK 293, transfected, on cells; not shown: mCherry, C-terminal, kept
T5 sequence (Q9EP73 19-290 Q214A): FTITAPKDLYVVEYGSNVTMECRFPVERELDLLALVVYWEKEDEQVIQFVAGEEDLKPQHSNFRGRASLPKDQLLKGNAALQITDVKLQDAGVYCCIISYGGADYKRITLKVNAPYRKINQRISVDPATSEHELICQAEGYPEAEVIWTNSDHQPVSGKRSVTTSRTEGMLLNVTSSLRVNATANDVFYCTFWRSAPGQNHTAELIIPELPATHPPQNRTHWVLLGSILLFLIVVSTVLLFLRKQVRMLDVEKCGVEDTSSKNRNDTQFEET

T4 sequence (Q9EP73 19-290 E163A): as the sequence (Q9EP73 19-290 Q214A) above, with E145A, A196Q counted along it
T1 sequence (Q9EP73 19-290 E163R): as the sequence (Q9EP73 19-290 Q214A) above, with E145R, A196Q counted along it
T2 sequence (Q9EP73 19-290 M188A): as the sequence (Q9EP73 19-290 Q214A) above, with M170A, A196Q counted along it
T3 sequence (Q9EP73 19-290 S142A): as the sequence (Q9EP73 19-290 Q214A) above, with S124A, A196Q counted along it

| Binder | binding result [1] | percent of wild-type binding [2] [%] | percent of wild-type binding [3] [%] | percent of wild-type binding [4] [%] | percent of wild-type binding [5] [%] | percent of wild-type binding [6] [%] |
| --- | --- | --- | --- | --- | --- | --- |
| B1 | binds |  |  |  |  |  |
| B2 | binds |  |  |  |  |  |
| B3 |  | ~50 | ~50 | ~50 | ~50 | ~50 |

Reference: publication PMC7272049 (PLoS ONE, 2020)
